Measured values taken from US20160052998A1 (GlaxoSmithKline, published 2016).
Residue numbers refer to the chain shown, from its start. Values joined by “and” are separate entries in the source; they are usually repeats but may differ in a detail not shown here. Identical values can stand only once.

B1: Rat Serum Albumin (other, UniProt P02770 25-608, looked up)
chain: EAHKSEIAHRFKDLGEQHFKGLVLIAFSQYLQKCPYEEHIKLVQEVTDFAKTCVADENAENCDKSIHTLFGDKLCAIPKLRDNYGELADCCAKQEPERNECFLQHKDDNPNLPPFQRPEAEAMCTSFQENPTSFLGHYLHEVARRHPYFYAPELLYYAEKYNEVLTQCCTESDKAACLTPKLDAVKEKALVAAVRQRMKCSSMQRFGERAFKAWAVARMSQRFPNAEFAEITKLATDVTKINKECCHGDLLECADDRAELAKYMCENQATISSKLQACCDKPVLQKSQCLAEIEHDNIPADLPSIAADFVEDKEVCKNYAEAKDVFLGTFLYEYSRRHPDYSVSLLLRLAKKYEATLEKCCAEGDPPACYGTVLAEFQPLVEEPKNLVKTNCELYEKLGEYGFQNAVLVRYTQKAPQVSTPTLVEAARNLGRVGTKCCTLPEAQRLPCVEDYLSAILNRLCVLHEKTPVSEKVTKCCSGSLVERRPCFSALTVDETYVPKEFKAETFTFHSDICTLPDKEKQIKKQTALAELVKHKPKATEDQLKTVMGDFAQFVDKCCKAADKDNCFATEGPNLVARSKEALA
notes: mature; 'mature' inferred from purified serum protein; also called RSA; rat SA
B2: DOM7r-92-4 (other)
VH: EVQLLESGGGLVQPGGSLRLSCAASGFTFDTSSMLWVRQAPGKGLEWVSVIHQSGTPTYYADSVKGRFTISRDNSKNTLYLQMNSLRAEDTAVYYCAKFPSTHGKFDYWGQGTLVTVSS
notes: Anti-serum albumin VH dAb (VH AlbudAb); also called DOM7h-92-4
B3: DOM7r31 (other)
VH: EVQLLESGGGLVQPGGSLRLSCTASGFTFRHYRMGWVRQAPGKGLEWVSWIRPDGTFTYYADSVKGRFTISRDNSKNTLYLQMNSLRAEDTAVYYCAKSYMGDRFDYWGQGTLVTVSS
notes: Anti-serum albumin VH dAb (VH AlbudAb)
B4: DOM7r-31-14 (other)
VH: B3 VH with G102A
notes: as for B3

Legend:
[1] = biological target: T1, DOM7h-11-15/Exendin-4 fusion DMS number 7143; test: SPR (BIAcore); KD as listed in PK table
T1 construct: Exendin-4 - (G4S)3 - AlbudAb, made in HEK293E; also called DMS7143

[2] = biological target: T2, Cynomolgus monkey Serum Albumin (Cynomolgus monkey, UniProt A2V9Z4 25-608); test: SPR (BIAcore), albumin amine-coupled to CM5 chip
T2 construct: mature; 'mature' inferred from purification out of serum; also called CSA; cyno serum albumin

mouse serum albumin [3] = biological target: T3, mouse serum albumin (mouse, UniProt P07724 25-608); test: SPR (BIAcore), albumin amine-coupled to CM5 chip
T3 construct: mature; 'mature' inferred from purified serum protein; also called MSA; mouse SA

Rat Serum Albumin [4] = biological target: B1; test: SPR (BIAcore), albumin amine-coupled to CM5 chip
Human Serum Albumin [5] = biological target: T4, Human Serum Albumin (human, UniProt P02768 25-609); test: SPR (BIAcore), albumin amine-coupled to CM5 chip
T4 construct: also called HSA; human SA

[6] = biological target: T2, Cynomolgus monkey Serum Albumin; test: SPR (BIAcore), albumin amine-coupled to CM5 chip; no KD given
mouse serum albumin [7] = biological target: T3, mouse serum albumin; test: as above
Rat Serum Albumin [8] = biological target: B1; test: as above
Human Serum Albumin [9] = biological target: T4, Human Serum Albumin; test: as above
mouse serum albumin [10] = biological target: T3, mouse serum albumin; test: SPR (BIAcore); multiple independent measurements (second of two values of 12)
mouse serum albumin [11] = biological target: T3, mouse serum albumin; test: SPR (BIAcore); multiple independent measurements (first of two values of 12)
mouse serum albumin [12] = biological target: T3, mouse serum albumin; test: SPR (BIAcore); multiple independent measurements

B1
Kd [1]: 273 nM

B2
Kd [2]: 98 nM | Kd (mouse serum albumin [3]): 110 nM | Kd (Rat Serum Albumin [4]): 260 nM | Kd (Human Serum Albumin [5]): 130 nM

B3
binding result [6]: binds | binding result (mouse serum albumin [7]): binds | binding result (Rat Serum Albumin [8]): binds | binding result (Human Serum Albumin [9]): binds

B4
Kd (mouse serum albumin [10]): 12 nM | Kd (mouse serum albumin [11]): 12 nM | Kd (mouse serum albumin [12]): 6 nM and 14.2 nM
